T1: PVRL2 (human, UniProt Q92692 32-360, limits assumed)
T1 construct: also called PVLR2; CD112
T1 sequence (looked up): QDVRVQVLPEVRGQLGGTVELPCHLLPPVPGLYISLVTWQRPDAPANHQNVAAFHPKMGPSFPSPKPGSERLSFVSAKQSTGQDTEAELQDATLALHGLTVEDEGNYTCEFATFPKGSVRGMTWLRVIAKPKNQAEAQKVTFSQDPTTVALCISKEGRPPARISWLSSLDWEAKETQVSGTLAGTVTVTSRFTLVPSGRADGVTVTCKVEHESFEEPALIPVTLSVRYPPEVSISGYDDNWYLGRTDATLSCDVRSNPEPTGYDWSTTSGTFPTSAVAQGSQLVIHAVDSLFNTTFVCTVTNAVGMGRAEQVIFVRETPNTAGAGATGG

T2: PVR (UniProt P15151 21-343, limits assumed)
T2 construct: also called poliovirus receptor; CD155
T2 sequence (looked up): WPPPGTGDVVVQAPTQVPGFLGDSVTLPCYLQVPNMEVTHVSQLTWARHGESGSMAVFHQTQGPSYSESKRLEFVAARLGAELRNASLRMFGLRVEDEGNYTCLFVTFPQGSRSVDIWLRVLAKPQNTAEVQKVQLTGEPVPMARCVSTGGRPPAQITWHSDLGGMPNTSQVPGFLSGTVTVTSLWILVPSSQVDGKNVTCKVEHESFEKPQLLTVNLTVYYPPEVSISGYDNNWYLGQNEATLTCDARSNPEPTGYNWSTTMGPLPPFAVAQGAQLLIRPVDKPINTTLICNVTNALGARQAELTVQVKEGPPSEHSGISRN


Legend:
PVRL2 = molecular target: T1, PVRL2; assay: not described at this place
PVR = molecular target: T2, PVR; assay: not described at this place

Binder	binding result (PVRL2)	binding result (PVR)
PVRIG (receptor, human, UniProt Q6DKI7 41-171, looked up, also called CD112R; Human Poliovirus Receptor Related Immunoglobulin Domain Containing Protein) TPEVWVQVRMEATELSSFTIRCGFLGSGSISLVTVSWGGPNGAGGTTLAVLHPERGIRQWAPARQARWETQSSISLILEGSGASSPCANTTFCCKFASFPEGSWEACGSLPPSSDPGLSAPPTPAPILRAD	binds	
TIGIT (receptor, human, UniProt Q495A1 22-141, looked up, also called human TIGIT) MMTGTIETTGNISAEKGGSIILQCHLSSTTAQVTQVNWEQQDQLLAICNADLGWHISPSFKDRVAPGPGLGLTLQSLTVNDTGEYFCIYHTYPDGTYTGRIFLEVLESSVAEHGARFQIP		binds
